Laboratory results from PMC3765158, “Structure Determination and Biochemical Characterization of a Putative HNH Endonuclease from Geobacter metallireducens GS-15” (PLoS ONE, 2013).

Legend:
[1] = target: non-His-tagged Gme HNHE (Gmet_0936 cleaved off the intein-CBD fusion, with non-native C-terminal residues LEGSS) (Geobacter metallireducens GS-15); experiment: SEC; Superdex 200 5/150 GL; 10 µl of 4 or 8 mg/ml protein injected; Kav against the standards ribonuclease A, ovalbumin and conalbumin
[2] = target: the molecule itself; experiment: SEC-MALS; analytical gel filtration on Shodex 802.5 at 4°C in 100 mM NaCl, 0.025% NaN3, 100 mM Tris-HCl pH 7.5, static light scattering and refractive index detectors; Debye analysis; data not shown

Molecule	stoichiometry N [1]	stoichiometry N [2]
non-His-tagged Gme HNHE (Gmet_0936 cleaved off the intein-CBD fusion, with non-native C-terminal residues LEGSS) (enzyme)	2	–
Gmet_0936 protein (putative HNH endonuclease) from Geobacter metallireducens GS-15, with C-terminal LEH6 (enzyme, UniProt Q39X46 1-104, looked up, selenomethionine in place of methionine (selenomethionine-labeled), Gmet_0936, putative HNH endonuclease of Geobacter metallireducens GS-15; full-length gene in a pET21 derivative (pGmR87-21.1); molecular mass with tag 13.3 kDa; The SEC with static light scattering used a thawed aliquot of the crystallization stock (the same protein as in the crystal); also called Gme HNHE (H6); Gmet_0936 (H6); source: E. coli BL21 (DE3) pMGK, selenomethionine-labeled, purified …) MNYFIVEVSEQEVKREKEKARELRRSQWWKNRIARGICHYCGEIFPPEELTMDHLVPVVRGGKSTRGNVVPACKECNNRKKYLLPVEWEEYLDSLESEPSDGEG	–	2
